Measurements from the Human Domainome abundance scans (Beltran et al. 2025).

B1: Zinc finger homeobox protein 4, residues 2183 to 2238; numbered along this chain, Q86UP3 (parent)
chain: SSRTRFTDYQLRVLQDFFDTNAYPKDDEIEQLSTVLNLPTRVIVVWFQNARQKARK

Variants of: B1
Test: abundance fitness (aPCA) (normalised: wild type 0, dead -1); higher = more abundant; growth selection in yeast, the domain comes from the species named
Conditions: Homo sapiens

Abundance fitness of substitutions, site by site:
T7: S -0.014 | V -0.299 | W -0.719 | Y -0.574
D8: A -0.106 | C -0.136 | E -0.151 | F -0.361 | G -0.225 | H 0.124 | I -0.511 | L -0.229 | M -0.125 | N -0.351 | P 0.096 | Q 0.103 | R -0.309 | S -0.315 | T -0.257 | V -0.282 | W -0.58 | Y -0.662
Y9: A 0.167 | C -0.102 | D -0.128 | E 0.081 | F 0.261 | G 0.062 | I -0.351 | K 0.318 | M 0.025 | N 0.057 | Q 0.283 | R 0.11 | S 0.14 | T 0.167 | V -0.038 | W 0.02
Q10: A -0.459 | C -0.395 | D -0.454 | E -0.297 | F -0.928 | G -0.69 | H -0.118 | I -0.391 | K -0.512 | L -0.736 | M -0.14 | R -0.657 | S -0.335 | T -0.176 | V -0.547 | W -0.826 | Y -0.787
L11: A -0.108 | C -0.341 | D 0.066 | E 0.095 | F -0.011 | G -0.016 | H -0.204 | I -0.031 | M -0.061 | N 0.053 | P -1.19 | R -0.26 | S 0.138 | T -0.063 | V -0.024 | Y -0.194
R12: A -0.263 | C -0.732 | F -0.81 | G -0.147 | H -0.166 | I -0.623 | L -0.309 | M -0.631 | N -0.017 | P -0.608 | Q -0.014 | S -0.203 | T -0.066
